Patent publication US20070167369A1, “Novel use of isolated polypeptide comprising four FAS-1 domains, EM1 domain and RGD motif” (KYUNGPOOK NATIONAL UNIVERSITY INDUSTRY-ACADEMIC COOPERATION …, priority 2004, published 2007)

Assays:
[1] = tested on: HUVECs; assay: Endothelial tube formation assay on Matrigel (Examples 9-1 and 11); assay type: cell-based, human
Method: First, 100 μl of Matrigel (Chemicon, International Inc, Temecula, Calif.) was added to each well of a 96-well plate and allowed to polymerize. HUVECs were suspended in medium at a density of 3×10^5 cells/ml, and 0.1 ml of the cell suspension was added to each well of the plate coated with Matrigel. At this time, 5 μM or 10 μM of the fas-1 domain (βig-h3 D-IV) prepared in Example 1 above was added together. A control was either treated with BSA or had no treatment. Thereafter, the cells were incubated at 37° C. for 16-18 hours. The cells were photographed, and endothelial tubes were counted and averaged.
For this purpose, the second fas-1 domain of βig-h3 (βig-h3 D-II) was prepared in the same manner as in Example 1-1 above. Since each domain of stabilin-II is insoluble, it was prepared in the form of soluble protein by cloning into the BamHI/XhoI sites of a Nus-conjugated pET43.1 vector (Novagen, USA). The prepared recombinant proteins were named “Nus-fas3” and “Nus-fas7”, respectively. A control to the second fas-1 domain of βig-h3 was treated with BSA, and a control to the fas-1 domain of stabilin-II was treated with a Nus protein. Thereafter, an endothelial tube formation assay was performed in the same manner as in Example 9-1.

[2] = tested on: Melanoma cells B16F10 tumor; assay: B16F10 subcutaneous tumor model, tumor growth and CD31 blood vessel count (Example 10-3); assay type: in vivo, BALB/c nude mouse; settings: 9 mg/kg or 18 mg/kg into the abdominal cavity one time a day
Method: Melanoma cells B16F10 were suspended in medium at a density of 1×10^7 cells/ml. 0.1 ml of the cell suspension was injected subcutaneously to 5-6 week old BALB/c nude mouse (purchased from Jung-Ang Animal Inc. Ltd., Korea) to make a subcutaneous tumor model. When the volume of the tumor reached about 25 mm^3, mice having similar tumor size were selected and divided into three groups. The fas-1 domain (βig-h3 D-IV) prepared in Example 1 above was injected into the abdominal cavity of the mice of each group at the amount of 9 mg/kg or 18 mg/kg one time a day. A control was injected with saline solution. Thereafter, the body weight and tumor size of the mice were checked at intervals of three days. The diameter of the tumor was measured with slide calipers, and the volume of the tumor was calculated according to the equation 1 above.
Meanwhile, the tumor was removed after a given time, photographed with a stereoscopic microscope, weighed, and then fixed in 4% paraformaldehyde. The fixed tumor was immersed in 30%, 20% and 10% sucrose solutions one after another for one hour each solution, frozen rapidly with liquid nitrogen spray, and then left to stand at […] for two hours. The frozen tumor was sliced with a tissue microtome (Leica, Germany) to make tissue slides which were then dried at room temperature. Thereafter, the tissue slides were immuno-stained with CD31 (Pharmingen, San Diego, Calif.), an antibody that binds specifically to vascular endothelial cells. The immuno-stained slides were observed under a microscope, and the number of blood vessels from 3-5 LPF (low power fields; x100) was counted and averaged. Each group consisted of 5 or 6 members.

[3] = tested on: HUVECs; assay: Migration of endothelial cells toward fibronectin, vitronectin or collagen (Example 5-2); assay type: cell-based, human
Method: The undersurface of a transwell plate was coated with each of fibronectin, vitronectin and collagen, and then, a test was performed in the same manner as in Example 4-2 above.

[4] = tested on: B16F10 tumor microvessels; assay: Intratumoral microvessel density, CD31 immunostaining (Example 15-2); assay type: in vivo, BALB/c nude mice; settings: B16F10 tumors of treated mice
Method: To determine whether the reduced size of the indicated protein-treated tumors coincides with reduced neovascularization, the present inventors used six representative tumors to quantify the density of microvessels after immunostaining with CD31 antibody.
Concretly, intratumoral microvessel density (MVD) was analyzed on paraffin sections of B16F10 tumor using a rat anti-mouse CD31 monoclonal antibody (PharMingen, San Diego, Calif.). Immunoperoxidase staining was done using the Vectastain avidin-biotin complex Elite reagent kit (Vector Laboratories, Burlingame, Calif.). Sections were counterstained with Hematoxyline. MVD was assessed initially by scanning the tumor at low power, followed by identification of four areas at the tumor periphery containing the maximum number of discrete microvessels, and counting individual microvessels at a high power field (x200). Each group consisted of six or eight tumor tissue.

[5] = tested on: HUVECs; assay: Endothelial cell adhesion to plates coated with βig-h3 or its fas-1 domains (Example 2); assay type: cell-based, human; settings: plate coated with 10 μg/ml protein; absorbance 405 nm
Method: Cell adhesion assay was performed according to the method described by Kim, J.-E. et al., J. Biol. Chem., 277:46159-46165, 2002. For this purpose, 10 μg/ml of each of the recombinant proteins (βig-h3 His-1-b, βig-h3 D-I, βig-h3 D-II, βig-h3 D-III and βig-h3 D-IV) prepared in Example 1 was placed into a flat-bottomed 96-well ELISA (enzyme-linked immunosorbent assay) plate (Costar, Corning Inc., NY) and then incubated overnight at 4° C., to coat the surface of the plate. As a control, 2% BSA was coated on the plate. Then, the plate was treated with PBS (phosphate-buffered saline) containing 2% BSA, and blocked at room temperature for one hour.
Meanwhile, HUVECs (human umbilical vein endothelial cells; Clonetics, San Diego, Calif.) were incubated in EGM medium (Clonetics, San Diego, Calif.) containing 2% FBS (Fetal Bovine Serum) under a condition of 37° C. and 5% CO2. The incubated cells were suspended in medium at a density of 3×10^5 cells/ml, and 0.1 ml of the cell suspension was added to each well of the plate. Next, the cells were incubated at 37° C. for 30 minutes and washed one time with PBS buffer to remove cells which had not been attached to the plate. […] The absorbance was measured at a 405-nm in a Bio-Rad model 550 microplate reader. Here, the higher the number of cells adhered to the plate, the higher the absorbance.

Molecule	inhibition of endothelial tube formation ([1]; 5 μM or 10 μM, 16-18 hours)	in vitro angiogenesis inhibitory effect compared with YH motif-containing peptide fragment of 18 amino acids ([1]; 10 μM fas-1 domain vs 1 mM YH peptide)	number of blood vessels stained with CD31 antibody in tumor [2]	tumor growth rate with time [2]	tumor size [2]	inhibition of migration of HUVECs to collagen ([3]; transwell coated with collagen)	inhibition of migration of HUVECs toward fibronectin ([3]; transwell coated with fibronectin)	inhibition of migration of HUVECs toward vitronectin ([3]; transwell coated with vitronectin)	CD31-positive microvessels in tumor (intratumoral microvessel density) [4]	adhesion of endothelial cells to coated protein [5]
fas-1 domain: recombinant protein containing the fourth fas-1 domain of human βig-h3 (SEQ ID NO: 64) (protein, listed as Homo sapiens) MGTVMDVLKGDNRFSMLVAAIQSAGLTETLNREGVYTVFAPTNEAFRALPPRERSRLLGDAKELANILKYHIGDEILVSGGIGALVRLKSLQGDKLEVSLKNNVVSVNKEPVAEPDIMATNGVVHVITNVL	inhibited the formation of endothelial tubes on Matrigel in a dose-dependent manner	much higher	significantly smaller than that of the control	much lower than that of the control	little or no increase in size even at 10 days after tumor induction	partially inhibited	completely inhibited	completely inhibited		
truncated βig-h3: recombinant human βig-h3 with EMI domain, all four fas-1 domains and RGD motif; residues 68-653 of SEQ ID NO: 1 (SEQ ID NO: 66) (protein, listed as Homo sapiens) WYQRKICGKSTVISYECCPGYEKVPGEKGCPAALPLSNLYETLGVVGSTTTQLYTDRTEKLRPEMEGPGSFTIFAPSNEAWASLPAEVLDSLVSNVNIELLNALRYHMVGRRVLTDELKHGMTLTSMYQNSNIQIHHYPNGIVTVNCARLLKADHHATNGVVHLIDKVISTITNNIQQIIEIEDTFETLRAAVAASGLNTMLEGNGQYTLLAPTNEAFEKIPSETLNRILGDPEALRDLLNNHILKSAMCAEAIVAGLSVETLEGTTLEVGCSGDMLTINGKAIISNKDILATNGVIHYIDELLIPDSAKTLFELAAESDVSTAIDLFRQAGLGNHLSGSERLTLLAPLNSVFKDGTPPIDAHTRNLLRNHIIKDQLASKYLYHGQTLETLGGKKLRVFVYRNSLCIENSCIAAHDKRGRYGTLFTMDRVLTPPMGTVMDVLKGDNRFSMLVAAIQSAGLTETLNREGVYTVFAPTNEAFRALPPRERSRLLGDAKELANILKYHIGDEILVSGGIGALVRLKSLQGDKLEVSLKNNVVSVNKEPVAEPDIMATNGVVHVITNVLQPPANRPQERGDELADSALEI									decrease in CD31-positive microvessels	mediated the adhesion of endothelial cells
